Source: publication PMC10318465, “A heme pocket aromatic quadrupole modulates gas binding to cytochrome c′-β: Implications for NO sensors” (The Journal of Biological Chemistry, 2023)
Substitutions are numbered along the chain they refer to. Names and notes keep the numbering of the source.

Assays:
His123 = His123 (UniProt position 143, GCFGCHAAQKE); assay: UV-vis; settings: 1x MHTCP cocktail buffer (5x stock: 500 mM CAPS, 250 mM Mes, 250 mM Hepes, 250 mM Pipes, 250 mM TAPS), sodium dithionite, excess PROLI NONOate, Ferrous heme-nitrosyl Fe(II)NO complex, 5 uM protein, equilibrium between 5cNO (His 123 dissociated) and 6cNO (His 123 bound)
[1] = Literature kinetic parameters of six-coordinate Fe(II)CO complexes of selected heme proteins; type: binding; settings: from literature koff(CO) values of Table 4
[2] = 6cNO; ref AxCP-α [9],[56]; L16A [9],[10]; Mb pig wt and V68T [57]; sGC [17],[58]; Ns H-NOX [16]; cited from earlier work
[3] = set-up: method as in earlier work; settings: 6cCO, ref AxCP-α [9],[56], L16A [9],[10], Mb pig wt and V68T [57], H64V,V68T [25], sGC [17],[58], Ns H-NOX [16], cited from earlier work; for Kd: read-out: Kd(CO)

Cytochrome c'-beta (McCP-beta) (Methylococcus capsulatus (Bath))
pKa (His123): 7.17 ± 0.03

B1: V68T: V68T variant of pig myoglobin (Mb) (protein, UniProt P02189 2-154, looked up, variant V68T)
Myoglobin: GLSDGEWQLVLNVWGKVEADVAGHGQEVLIRLFKGHPETLEKFDKFKHLKSEDEMKASEDLKKHGNTTLTALGGILKKKGHHEAELTPLAQSHATKHKIPVKYLEFISEAIIQVLQSKHPGDFGADAQGAMSKALELFRNDMAAKYKELGFQG
increase of koff(CO) relative to wt Mb [1]: ~4 fold
kon(NO) [2]: 4.9e+06 M⁻¹ s⁻¹
koff(CO) [3]: 0.079 s⁻¹
kon(CO) [3]: 610000 M⁻¹ s⁻¹
Kd [3]: 0.13 µM

B2: Mb pig (wt): wild-type pig myoglobin (protein, UniProt P02189 2-154, looked up)
Myoglobin: B1 Myoglobin with T68V
kon(NO) [2]: 1.7e+07 M⁻¹ s⁻¹
koff(CO) [3]: 0.019 s⁻¹
kon(CO) [3]: 780000 M⁻¹ s⁻¹
Kd [3]: 0.024 µM

B3: H64V, V68T: H64V/V68T Mb double variant (protein, UniProt P02189 2-154, looked up, variant H64V V68T)
Myoglobin: B1 Myoglobin with H64V
increase of koff(CO) relative to wt Mb [1]: ~3 fold
koff(CO) [3]: 0.063 s⁻¹
kon(CO) [3]: 2.7e+07 M⁻¹ s⁻¹
Kd [3]: 0.0023 µM
